In the supplement of paper PMC10567573:

B1: YPEL3 (parent)
chain: SKPKTFQAYLDDCHRRYSCAHCRA
B2: RAB22A (parent)
chain: FVEDSFDPNINPTIGASFMTKTVQ

Variants of: B1
Experiment: protein stability index of a GFP-peptide fusion (GPS, HEK-293T) (PSI 1-6); higher = more stable
Settings: c terminus: a fixed tail appended
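Note: lentivirally expressed fusions sorted by FACS into six bins by GFP to DsRed ratio, PSI derived from sequencing read proportions per bin multiplied by bin number.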

Protein stability index: each site, then its substitutions
C22: I 2.69, P 2.61, W 1.77, Y 2.17, T 2.73, E 2.34, R 2.63, G 2.75, Q 3.22, L 2.37, D 2.94, V 2.64, A 2.04, H 1.82, N 2.45, F 2.32, S 1.86, K 2.86, M 1.98
H21: R 3.32, P 1.9, Y 1.48, G 1.28, F 1.52, I 2.52, L 1.74, T 2.34, D 2.18, S 2.19, M 1.18, V 1.79, K 2.37, C 1.83, Q 2, A 2.06, W 1.65, N 1.57
R23: A 3.07, V 3.34, C 1.24, K 2.03, I 3.07, E 2.09, D 2.18, G 1.39, H 2.59, M 2, Q 1.86, S 3.52, W 2.08, P 2.11, N 2.91, L 2.37, F 2.61
A24: K 3.42, V 1.84, Q 2.59, E 1.71, S 1.54, G 2.32, L 1.87, R 1.71, M 2.07, H 1.85, C 1.83, W 2.39, I 2, D 1.73, P 2.24, Y 2.86, N 2, T 1.54, F 2.59
A20: V 2.02, Y 2.16, W 3.14

Variants of: B2
Experiment: as above
Settings: c terminus: a fixed tail appended

Protein stability index: each site, then its substitutions
T13: W 3.05, P 2.67, Q 2.44, D 2.71, K 2.29, C 1.79, V 2.29, I 1.75, A 2.39, F 1.59, Y 1.73, S 2.31, G 2.15, N 2.19, E 2.52, R 1.93, M 1.91, L 2.21, H 2.31
V2: K 3.69, M 3.62, W 2.51, I 2.81, C 3.14, D 4.03, P 4.33, Y 3.19, A 3.54, Q 3.8, R 3.48, L 3.29, G 3.77, S 3.99, T 3.68, H 3.61, E 3.95, N 3.62, F 2.89
N11: A 2.42, E 2.58, I 2.23, H 1.85, T 2.4, L 1.85, F 1.82, C 2.46, P 2.43, W 2.41, V 2.24, S 2.04, G 2.07, K 2.47, Y 2.16, M 2.14, D 2.56, R 1.75, Q 2.48
I10: H 2.48, W 1.93, L 2.14, T 2.83, Y 2.25, P 2.57, K 2.5, A 2.48, R 2.1, D 2.93, Q 2.81, S 2.56, M 1.99, N 2.73, C 2.14, F 2.2, G 2.3, E 3.02, V 2.21
F6: L 2.56, C 2.67, D 3.85, E 4.08, V 3.31, P 2.74, Q 2.88, Y 2.02, A 2.83, T 2.89, K 2.71, I 2.56, H 2.58, W 1.76, R 2.36, G 3.27, S 2.99, M 2.69, N 2.9
F1: T 4.36, N 4.44, S 3.98, K 4.2, A 4.1, R 4.24, Y 2.91, D 4.45, W 3.41, M 3.61, C 3.75, E 4.66, P 4.42, V 3.79, G 4.4, I 3.72, Q 4.25, H 4.25, L 3.51
D4: C 1.66, H 1.36, T 1.89, Q 1.82, R 1.7, A 1.63, N 2.23, I 3.06, P 1.78, K 1.52, S 1.65, W 2.1, F 3.14, M 2.23, E 2.52, V 2.36, L 2.38, G 2.02, Y 2.98
S5: M 1.99, W 1.52, F 2.92, C 2.03, Q 2.65, V 1.89, L 1.97, D 3.27, N 2.64, K 2.1, Y 1.98, H 1.74, T 2.34, E 3.63, R 1.93, G 2.08, A 2.16, P 1.96, I 2.18
P8: F 2.94, Q 2.26, A 2.33, S 2.17, D 2.76, V 2.27, E 2.7, K 2.13, C 2.02, N 2.35, H 2.1, W 2.65, R 2.63, Y 1.85, T 2.39, G 2.52, M 2.06, L 2.1, I 1.67
D7: H 2, A 1.96, Y 1.67, I 2, W 3.07, R 1.97, G 1.79, E 2.36, K 2.09, N 1.61, P 1.96, L 2.15, F 2.75, M 2.33, V 1.94, S 1.92, T 2.15, C 1.98, Q 1.98
E3: D 2.49, R 2.54, S 2.8, P 2.95, I 1.88, F 2.57, T 1.57, G 1.49, Q 1.75, L 1.78, N 1.96, W 1.72, H 2.26, K 1.88, M 1.84, V 1.75, A 1.93, Y 1.75, C 1.59
P12: A 2.13, H 2.46, L 1.85, Y 2.37, I 1.82, M 1.89, V 2.18, C 2.06, F 2, G 2.29, N 2.15, T 2.25, Q 2.45, D 2.49, E 2.57, K 2.42, W 2.08, R 1.81, S 2.4
I14: A 2.07, K 2.29, H 2.87, F 2.05, L 2.14, D 3.19, C 2.01, N 2.81, E 3.21, M 2.55, G 2.59
N9: G 2.78, S 2.51, Y 1.72, K 1.88, I 2.23, L 1.66, E 2.47, M 2.35, Q 2.1, W 2.65, D 2.73, P 2.49, H 2.22, R 1.95, F 1.92, T 2.26, A 2.25, V 2.04, C 2.08
